Reference: paper PMC9135708 (2022)

What was measured:
Experiment in all cases: BLI
[1] = biological target: TY19
[2] = biological target: TY01
[3] = biological target: TY07
[4] = biological target: AKBR-1
[5] = biological target: AKBR-5

Binder	Kd [1] [µM]	koff [1] [s⁻¹]	Kd [2] [µM]	koff [2] [s⁻¹]	Kd [3] [µM]	koff [3] [s⁻¹]	Kd [4] [µM]	koff [4] [s⁻¹]	Kd [5] [µM]	koff [5] [s⁻¹]
Plasmodium yoelii TRAP ectodomain (PyTRAP) (domain or fragment, site-specific biotinylation using BirA ligase, when required) NGQETLDEIKYSEEVCTEQIDIHILLDGSGSIGYSNWKAHVIPMLNTLVDNLNISNDEINVSLTLFSTNSRELIKLKGYGSTSKDSLRFILAHLQNNYSPNGNTNLTSALLVVDTLINERMYRPDAIQLAIILTDGIPNDLPRSTAVVHQLKRKHVNVAIIGVGAGVNNEYNRILVGCDRYAPCPYYSSGSWNEAQNMIKPFLTKVCQEVERIAHCGKWEEWSECSTTCDEGRKIRRRQILHPGCVSEMTTPCKVRDCPQIPIPPVIPNKIPEKPSNPEEPVNPNDPNDPNNPNNPNNPNNPNNPNNPNNPNNPNNPNNPNNPNNPNNPNNPNNPNNPNNPNNPNNPNNPNNPNNPNNPNDPSNPNNPNPKKRNPKRRNPNKPKPNKPNPNKPNPNEPSNPNKPNPNEPSNPNKPNPNEPSNPNKPNPNEPSNPNKPNPNEPLNPNEPSNPNEPSNPNAPSNPNEPSNPNEPSNPNEPSNPNEPSNPNEPSNPKKPSNPNEPSNPNEPLNPNEPSNPNEPSNPNEPSNPEEPSNPKEPSNPNEPSNPEEPNPEEPSNPKEPSNPEEPINPEELNPKEPSNPEESNPKEPINPEESNPKEPINPEDNENPLIIQDEPIEPRNDSNVIPILPIIPQKGNNIPSNLPENPSDSEVEYPRPNDNGENSNNTMKSKKNIPNEPIPSPGDNPYKGHEERIPKPHRSNDDYVYDNNVNKNNKDEPEIPNNEYEEDKNKNQSKSNNGYK	0.307	0.0495	0.00165	0.000498	0.0265	0.00397				
Plasmodium falciparum TRAP ectodomain (PfTRAP) (domain or fragment, site-specific biotinylation using BirA ligase, when required) RDVQNNIVDEIKYSEEVCNDQVDLYLLMDCSGSIRRHNWVNHAVPLAMKLIQQLNLNDNAIHLYVNVFSNNAKEIIRLHSDASKNKEKALIIIRSLLSTNLPYGRTNLTDALLQVRKHLNDRINRENANQLVVILTDGIPDSIQDSLKESRKLSDRGVKIAVFGIGQGINVAFNRFLVGCHPSDGKCNLYADSAWENVKNVIGPFMKAVCVEVEKTASCGVWDEWSPCSVTCGKGTRSRKREILHEGCTSEIQEQCEEERCPPKWEPLDVPDEPEDDQPRPRGDNSSVQKPEENIIDNNPQEPSPNPEEGKDENPNGFDLDENPENPPNPDIPEQKPNIPEDSEKEVPSDVPKNPEDDREENFDIPKKPENKHDNQNNLPNDKSDRNIPYSPLPPKVLDNERKQSDPQSQDNNGNRHVPNSEDRETRPHGRNNENRSYNRKYNDTPKHPEREEHEKPDNNKKKGESDNKYK							0.194	0.00368	0.0529	0.00611
